Results on 34 substances are retold here after patent US20220177587A1, “METHODS AND USES OF VARIANT CD80 FUSION PROTEINS AND RELATED CONSTRUCTS” (Alpine Immune Sciences, Inc., priority 2018, published 2022).

Assay [1] deals with CD28 (human) (UniProt P10747). In words: flow cytometry, Jurkat cells (CD28). (In flow cytometry, cells or beads pass a laser one at a time.)
In another assay the target is human CTLA-4 (human) (UniProt P16410). In words: flow cytometry, CHO cells expressing CTLA4.
The target in assay [2] is PD-L1 (human) (UniProt Q9NZQ7). The assay is described as follows: flow cytometry, CHO cells expressing PD-L1.
Sequence of PD-L1 (human) (Q9NZQ7 19-290): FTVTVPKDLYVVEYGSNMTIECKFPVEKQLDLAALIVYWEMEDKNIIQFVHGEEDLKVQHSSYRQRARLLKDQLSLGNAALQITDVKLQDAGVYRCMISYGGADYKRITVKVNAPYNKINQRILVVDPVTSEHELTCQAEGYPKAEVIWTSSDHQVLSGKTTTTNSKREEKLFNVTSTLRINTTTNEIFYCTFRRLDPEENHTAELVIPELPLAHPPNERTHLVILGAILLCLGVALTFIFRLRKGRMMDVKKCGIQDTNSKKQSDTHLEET
Assay [3] addresses CD28 (human) (UniProt P10747).
The target of assay [4] is PD-L1 (human) (UniProt Q9NZQ7).

Sequence of human CTLA-4 (human) (P16410 36-223): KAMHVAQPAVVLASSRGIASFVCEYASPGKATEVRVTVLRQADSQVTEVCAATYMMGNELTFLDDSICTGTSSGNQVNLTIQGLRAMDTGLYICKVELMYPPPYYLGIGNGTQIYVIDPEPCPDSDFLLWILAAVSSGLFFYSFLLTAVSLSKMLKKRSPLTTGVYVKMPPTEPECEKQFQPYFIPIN

Take “CD80 T13R/Q33L/E35D/M47V/T62S/V68M/L85M IgV-Fc (Fc fusion)”: the values for the Fold change to WT CD80 with CD28 (human) [1] and with PD-L1 (human) [2] were 0.5 fold and 77 fold, respectively. The MFI at 33.3 nM with CD28 (human) [1] is 16 MFI; with human CTLA-4 (human) it was 105 MFI; in the assay with PD-L1 (human) [2], 3970 MFI.
Regarding “CD80 H18Y/E35D/M47L/Y53F/V68M/A71G/K93R/E95V IgV-Fc (Fc fusion)”, the MFI at 33.3 nM with CD28 (human) [1] is 334 MFI; in the assay with human CTLA-4 (human), 18400 MFI; with PD-L1 (human) [2], 23400 MFI. In addition, in the assay with human CTLA-4 (human), the Fold change to WT CD80 was determined as 10.5 fold.
In turn, “CD80 E35D/D46E/M47I/T62A/V68M/L85M/Y87C IgV-Fc (Fc fusion)” came in with an MFI at 33.3 nM in the assay with human CTLA-4 (human) of 17000 MFI.
“CD80 H18Y/E35D/V68M/A71G/R94Q/E95V IgV-Fc (Fc fusion)”: the MFI at 33.3 nM with CD28 (human) [1] came out at 16 MFI; with human CTLA-4 (human) it was 18300 MFI; in the assay with PD-L1 (human) [2] it was 15000 MFI.
Regarding “CD80 Q27L/Q33L/E35D/T41S/M47V/N48K/V68M/L85M IgV-Fc (Fc fusion)”, the values for the Fold change to WT CD80 with CD28 (human) [1] and in the assay with PD-L1 (human) [2] were 0.5 fold and 320 fold, respectively. The MFI at 33.3 nM was determined as 15 MFI with CD28 (human) [1], 178 MFI in the assay with human CTLA-4 (human) and 16500 MFI with PD-L1 (human) [2].
For “CD80 S21P/E35D/K37E/D46E/M47I/V68M IgV-Fc (Fc fusion)”, the figures for the MFI at 33.3 nM in the assay with CD28 (human) [1] and with human CTLA-4 (human) were 540 MFI and 20600 MFI, respectively.
In the case of “CD80 E35D/M47V/V68M/L85M/Y87D IgV-Fc (Fc fusion)”, the results for the MFI at 33.3 nM with human CTLA-4 (human) and in the assay with PD-L1 (human) [2] were 13900 MFI and 1720 MFI, respectively.
Regarding “CD80 Q33R/E35D/M38I/M47L/V68M IgV-Fc (Fc fusion)”, the Fold change to WT CD80 with CD28 (human) [1] was found to be 0.5 fold; with PD-L1 (human) [2], 320 fold. Besides, the MFI at 33.3 nM worked out at 15 MFI with CD28 (human) [1], 107 MFI in the assay with human CTLA-4 (human) and 16500 MFI with PD-L1 (human) [2].
As for “CD80 T13R/Q33R/E35D/M38I/M47L/V68M IgV-Fc (Fc fusion)”, the MFI at 33.3 nM with CD28 (human) [1] came out at 13.8 MFI; with human CTLA-4 (human), 193 MFI; with PD-L1 (human) [2] it was 4480 MFI. This substance registered a Fold change to WT CD80 with PD-L1 (human) [2] of 87 fold.
Regarding “CD80 H18Y/E35D/M47I/V68M/Y87N IgV-Fc (Fc fusion)”, the MFI at 33.3 nM with CD28 (human) [1] worked out at 4040 MFI; in the assay with human CTLA-4 (human) it was 18600 MFI; with PD-L1 (human) [2], 15000 MFI.
Consider “CD80 S21P/E35D/K37E/D46E/M47I/V68M/R94L IgV-Fc (Fc fusion)”, for which the MFI at 33.3 nM with CD28 (human) [1] is 284 MFI; with human CTLA-4 (human) it was 20100 MFI.
“CD80 E35D/T41S/M47V/A71G/K89N IgV-Fc (inert) (Fc fusion)”: the Jurkat/IL2 reporter RLU at 50 nM, K562/OKT3/PD-L1 aAPC in the assay with CD28 (human) [3] and in the assay with PD-L1 (human) [4] was 1020 RLU in each case.
Regarding “CD80 E35D/T41S/M43I/M47L/A71G IgV-Fc (inert) (Fc fusion)”, the Jurkat/IL2 reporter RLU at 50 nM, K562/OKT3/PD-L1 aAPC with CD28 (human) [3] and with PD-L1 (human) [4] was 1540 RLU in each case.
“CD80 E35D/M47V/V68M/L85M IgV-Fc (Fc fusion)”: the figures for the MFI at 33.3 nM with CD28 (human) [1], with human CTLA-4 (human) and with PD-L1 (human) [2] were 201 MFI, 16000 MFI and 9180 MFI, respectively.
On to “CD80 T13R/Q33L/E35D/M47L/V68M/L85M IgV-Fc (Fc fusion)”, for which the figures for the Fold change to WT CD80 with CD28 (human) [1] and in the assay with PD-L1 (human) [2] were 0.5 fold and 62.7 fold, respectively. Moreover, the MFI at 33.3 nM with CD28 (human) [1] is 15.7 MFI; with human CTLA-4 (human), 141 MFI; with PD-L1 (human) [2] it was 3230 MFI.
With “CD80 V22D/E24D/E35D/M47V/V68M IgV-Fc (Fc fusion)”, the MFI at 33.3 nM with CD28 (human) [1] was 191 MFI; with human CTLA-4 (human), 16900 MFI.
“CD80 E35D/D46V/M47L/V68M/L85Q/E88D IgV-Fc (inert) (Fc fusion)”: the Jurkat/IL2 reporter RLU at 50 nM, K562/OKT3/PD-L1 aAPC with CD28 (human) [3] and in the assay with PD-L1 (human) [4] was 1460 RLU each time.
In the case of “CD80 H18Y/E35D/M47L/V68M/A71G/L85M IgV-Fc (Fc fusion)”, the MFI at 33.3 nM amounted to 19500 MFI with human CTLA-4 (human) and 18700 MFI with PD-L1 (human) [2].
Consider “CD80 E35D/A71G IgV-Fc (inert) (Fc fusion)”, for which the Jurkat/IL2 reporter RLU at 50 nM, K562/OKT3/PD-L1 aAPC with CD28 (human) [3] and with PD-L1 (human) [4] was 1190 RLU each time.
Take “CD80 E35D/D46E/M47V/V68M/L85Q IgV-Fc (Fc fusion)”: the MFI at 33.3 nM in the assay with human CTLA-4 (human) stood at 15500 MFI; with PD-L1 (human) [2] it was 1720 MFI.
On to “CD80 A26E/E35D/M47L/A71G IgV-Fc (inert) (Fc fusion)”, for which the Jurkat/IL2 reporter RLU at 50 nM, K562/OKT3/PD-L1 aAPC in the assay with CD28 (human) [3] and in the assay with PD-L1 (human) [4] was 1750 RLU throughout.
In the case of “CD80 T13R/Q33R/E35D/M38I/M47L/V68M/L85M/R94Q IgV-Fc (Fc fusion)”, the figures for the MFI at 33.3 nM with CD28 (human) [1], in the assay with human CTLA-4 (human) and with PD-L1 (human) [2] were 15.2 MFI, 19100 MFI and 20400 MFI, respectively.
Consider “CD80 H18Y/E35D/M47L/Y53F/V68M/A71G IgV-Fc (Fc fusion)”, for which the Fold change to WT CD80 came out at 0.5 fold with CD28 (human) [1] and 99.1 fold with PD-L1 (human) [2]. In addition, the MFI at 33.3 nM with CD28 (human) [1] worked out at 15.7 MFI; with human CTLA-4 (human) it was 146 MFI; in the assay with PD-L1 (human) [2] it was 5100 MFI.
Regarding “CD80 T13R/Q27L/Q33L/E35D/T41S/M47V/N48K/V68M/L85M IgV-Fc (Fc fusion)”, the Fold change to WT CD80 was 0.5 fold with CD28 (human) [1] and 63.5 fold with PD-L1 (human) [2]. The MFI at 33.3 nM in the assay with CD28 (human) [1] is 14.6 MFI; with human CTLA-4 (human), 109 MFI; in the assay with PD-L1 (human) [2], 3270 MFI.
For the substance “CD80 E35D/M47I/T62S/L85Q IgV-Fc (inert) (Fc fusion)”, the Jurkat/IL2 reporter RLU at 50 nM, K562/OKT3/PD-L1 aAPC with CD28 (human) [3] and with PD-L1 (human) [4] was 1570 RLU each time.
For “CD80 Q33L/E35D/M47V/T62S/V68M/L85M IgV-Fc (Fc fusion)”, the MFI at 33.3 nM is 15 MFI in the assay with CD28 (human) [1] and 86 MFI with human CTLA-4 (human).
As for “CD80 V22L/Q27H/E35D/M47I/A71G IgV-Fc (inert) (Fc fusion)”, the Jurkat/IL2 reporter RLU at 50 nM, K562/OKT3/PD-L1 aAPC with CD28 (human) [3] and with PD-L1 (human) [4] was 1120 RLU throughout.
“CD80 R29C/E35D/M47L/V68M/A71G/L85M IgV-Fc (Fc fusion)”: the MFI at 33.3 nM is 16 MFI in the assay with CD28 (human) [1] and 91 MFI in the assay with human CTLA-4 (human).
“CD80 H18Y/E35D/M38I/M47L/V68M/L85M IgV-Fc (Fc fusion)”: the Fold change to WT CD80 with CD28 (human) [1] came out at 0.5 fold; in the assay with PD-L1 (human) [2] it was 69.7 fold. Moreover, the MFI at 33.3 nM with CD28 (human) [1] is 16.7 MFI; with human CTLA-4 (human) it was 139 MFI; with PD-L1 (human) [2], 3590 MFI.
“CD80 Q33L/E35D/M47I/N48D/A71G IgV-Fc (inert) (Fc fusion)”: the Jurkat/IL2 reporter RLU at 50 nM, K562/OKT3/PD-L1 aAPC with CD28 (human) [3] and in the assay with PD-L1 (human) [4] was 213 RLU throughout.
Consider “CD80 V22A/E35D/M47I/Y87N IgV-Fc (inert) (Fc fusion)”, for which the Jurkat/IL2 reporter RLU at 50 nM, K562/OKT3/PD-L1 aAPC with CD28 (human) [3] and in the assay with PD-L1 (human) [4] was 1390 RLU throughout.
With “CD80 E35D/T41S/M43I/M47V/A71G IgV-Fc (inert) (Fc fusion)”, the Jurkat/IL2 reporter RLU at 50 nM, K562/OKT3/PD-L1 aAPC with CD28 (human) [3] and with PD-L1 (human) [4] was 1270 RLU in each case.
On to “CD80 E35D/M38T/M43V/M47V/N48R/L85Q IgV-Fc (inert) (Fc fusion)”, for which the Jurkat/IL2 reporter RLU at 50 nM, K562/OKT3/PD-L1 aAPC in the assay with CD28 (human) [3] and with PD-L1 (human) [4] was 680 RLU in each case.
As for “CD80 E35D/A71D/L72V/R73H/E81K IgV-Fc (inert) (Fc fusion)”, the Jurkat/IL2 reporter RLU at 50 nM, K562/OKT3/PD-L1 aAPC with CD28 (human) [3] and in the assay with PD-L1 (human) [4] was 282 RLU each time.
